Experimental data taken from article PMC3023227 (2010).
Where no end group is shown, it is not given here. [ ]: non-standard residue; d: D form. pY = N[C@@H](Cc1ccc(OP(=O)(O)O)cc1)C(=O)O

Target: GAPDH (Oryctolagus cuniculus, UniProt P46406)
Assay: fluorescence titration

Chain of GAPDH (P46406 whole entry): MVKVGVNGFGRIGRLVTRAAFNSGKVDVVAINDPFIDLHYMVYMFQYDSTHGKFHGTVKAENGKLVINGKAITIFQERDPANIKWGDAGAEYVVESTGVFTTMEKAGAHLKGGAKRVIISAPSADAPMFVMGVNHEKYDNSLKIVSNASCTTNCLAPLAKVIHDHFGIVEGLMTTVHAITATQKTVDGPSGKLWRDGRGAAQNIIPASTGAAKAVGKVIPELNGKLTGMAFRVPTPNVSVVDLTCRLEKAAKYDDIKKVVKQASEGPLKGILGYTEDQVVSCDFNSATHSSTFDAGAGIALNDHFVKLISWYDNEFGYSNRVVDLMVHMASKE

Row | Kd | Binder
1 | 3.2 µM | CLDADDAKATFDEEEGRDEYDEVAMPV [AE1 C-terminal peptide AE1C-Y904]
2 | 2.6 µM | CLDADDAKATFDEEEGRDE[pY]DEVAMPV [AE1 C-terminal peptide AE1C-pY904]
3 | 2.3 µM | LIFRNVELQCLDADDAKATFDEEEGRDEYDEVAMPV [AE1 C-terminal domain (AE1C-WT) 876-911]
